The DeepSol protein solubility set

Test: soluble on expression in E. coli; label from the status in PepcDB or PDB records

## MGSDKIHHHHHHMKVHLIGHASLFVETLDCNILMDPLLWNPGISEGMQDICPKRQVLHDQIPEFDILVISHQHIDHFNIRSLANLPKHVDVLIPKDQFLETCLRKLGYRHIYPLKDFNEVRIGSTRLVATRSENRVPEYGMIFADSDGVFWNQVDSIVNAQTINEVKSRYPQINFLLAPWQPLLQIQYQYNECVIFPYASYSHLLKIIGLTAPKAIAPGANGFKQINGSSWLNQIVFPVTREQFCHDVQQAYPTIQDRIFSFDPGDVITLNNGEVSHSPQKSTFVKKLADDSDSLYFSPVNTDSKLIDDNPEGYDIEQMKSVIEEEICIHLTKFFNDKKDSLFMEYGYWKAIYQLEVIFPTHSEAWYFDFSEHSIQCRRGKNPLANVFTLIAASSFYGLLKGIKGWDYANFGGYYRCFNKVYQATLYGIIRPFDDSNQGIPDPLSLKFPYKEVYERVRFYEIEKWGQVNDEQTIDKNSQNPMVIIGNTLIKPQHKVQCI
  soluble on expression in E. coli: not soluble

## KKAQLIVAGIGPGSPEDITPAVIQAVKNSDVVIGYKYYFQFIEPYLEPGTECIDTGMKREKARAEQAFELAEQGKTVCVISSGDAGIYGMAPLVYEMKRERGSRVEIEVLPGIS
  soluble on expression in E. coli: not soluble

## MASMTGGNNMGRGSMGAMDQEIGTVTDTKMDPRDFLQLLKINAEKAEKNLPLDQKRAGMEALCERFPRAEGVELTLTDLGGVPCIRQATDGAGAAHILYFHGGGYISGSPSTHLVLTTQLAKQSSATLWSLDYRLAPENPFPAAVDDCVAAYRALLKTAGSADRIIIAGDSAGGGLTTASMLKAKEDGLPMPAGLVMLSPFVDLTLSRWSNSNLADRDFLAEPDTLGEMSELYVGGEDRKNPLISPVYADLSGLPEMLIHVGSEEALLSDSTTLAERAGAAGVSVELKIWPDMPHVFQMYGKFVNAADISIKEICHWISARISKLAAALEHHHHHH
  soluble on expression in E. coli: soluble

## MGSDKIHHHHHHMHYEEGDDLVASSMTYSVKEMSMRNVRPVLLSLGLLSTVGIATAADTTTFNVKIAVTKACTITAASATDVDFGSVLSTSTANADANGSVTAQCTALTPYNIALSAGSNAGTANDVTTRRMKNTDALVTTNNFVAYQLYQDLGRSTVWGSTSGTNTLSRTATGINQIYPVYGRVTNPSAGNPATGTYQDTITATIIY
  soluble on expression in E. coli: not soluble

## MPPMHLLKSKVHIAEALNDETTMSLLKKIVSKKCISKISQWKNELSSNLDG
  soluble on expression in E. coli: not soluble

## MGSDKIHHHHHHMIRKIVEIDQEKCNGCGICVPACAEGAIRIENGKAVLAADNLCDGLGACLGECPLDAIRIIERDADEFDEAAVEAHLGQTSRESHHAAHQPAPVHGGCPGSRAMVLDRPATESVRDVPRQESRLRQWPVQLHLVPTSAPYFRNADLLIAADCVPFAYADFHREFLDGRAVVVGCPKLDDNRFYTEKLTELIRVNDLKSITVVRMEVPCCGGIVMAARQALAASSKDIPLREVTVGISGELKGA
  soluble on expression in E. coli: not soluble

## NKMAMIDLAKLFLASKITAIEFSERICVERRRLYGVKDLSPNILNCGEELFMAAERFEPDADRANYEIDDNGLKVEVRSILEKFKLHHHHH
  soluble on expression in E. coli: soluble

## MRAVWVLGIDTSCDDTGVGLVRDGKVVVNLVASQVRLHEAFGGVVPELASREHLKALPLLVERALAEAGLRPKDLDLVAATRGPGLIGALLVGYTFAKGMAFALDRPFYAVHHLEGHIAAAWPEGLPPPFLALVASGGHTHLYEVLDLGRYRLLGATRDDAAGEAFDKVARLLGLGFPGGPEVERLAEEAEEAIPFPVPLRGQEGYDFSFSGLKTKALHLVEKGLPKAALAKGFQEAAIAHLAEVVLKAAKDTGHRVLLVAGGVAANRALQERFKEAGLEVHFPPRGLSQDNGAMIALAAWRRHQRGFPPSPLSLGATAYWPLEEA
  soluble on expression in E. coli: soluble

## MAHHHHHHMVDLLQRALANPFQDKLTFSPEDWDAHGLQPYQRCLREPFLRGCDTLVHKIRMQRIDFAKGILEQVVEDVQFRQKWGSLGEDYVTENAVQLTAYIFDSQERSLGGRRDPRKEDGAAQNIVYQPSTLSLGGDPALESLVTCVWFLRRDVLLLHQDFCYPVCEGRLTVFGRVQVALLRFYVRHAIKPRLLFLRQQHRGTLVVVELMMIGFAFCVERLMRPGLTCSGTVARRIRRVQGGTASSTSTGSGLVSGVHGEDSVAAASSGGGSAGGGGGGGGGGKLHCRPGRRRRWVVVM
  soluble on expression in E. coli: not soluble

## ITLAVKVGMIQLCGCSGCHISLLDLHDKLLEVLPNLEIVYAPIIADPKEIPEGIDVFLVEGGIRNEHDEHLIHEIREKSKIVIAWGTCAAYGGIPGLGNLYKKEELLNYVYSTDSTENKGEIPSEEIPPLEEYVKPIKDFIKVDYTIPGCPPTPKMIADAIIALLNGEEPKLPTKIVC
  soluble on expression in E. coli: not soluble

## AATSRTERIWPGGVIPYVIGGNFTGSQRAMFKQAMRHWEKHTCVTFIERSDEESYIVFTYRPCGCCSYVGRRGNGPQAISIGKNCDKFGIVVHELGHVIGFWHEHTRPDRDNHVTIIRENIQPGQEYNFLKMEPGEVNSLGERYDFDSIMHYARNTFSRGMFLDTILPSRDDNGIRPAIGQRTRLSKGDIAQARKLYRCPA
  soluble on expression in E. coli: soluble

## GSHMSQPRPLLSPPETEEQLLAQAQQLSGYTLGELAALVGLVTPENLKRDKGWIGVLLEIWLGASAGSKPEQDFAALGVELKTIPVDSLGRPLETTFVCVAPLTGNSGVTWETSHVRHKLKRVLWIPVEGERSIPLAQRRVGSPLLWSPNEEEDRQLREDWEELMDMIVLGQVERITARHGEYLQIRPKAANAKALTEAIGARGERILTLPRGFYLKKNFTSALLARHFLIQ
  soluble on expression in E. coli: soluble

## IGEVDLTVRANMTYSKNEIKEYDEENSRYPYKMKYGFRVDQARGLIAEGLFKDYEEIRNRPSQGSGIMPGDIKYKDVNGDGVINGDDEVPIGATTRPNLIYGFGVSAQWKEFDINVHFQGAGKSSFFIDGFTVYPFQEKSWGNILTDVVGNYWSLGTNEDPNAKYPRLSYGGNSNNYRASTYWLRNGSYIRLKNVELGYNIPKRFVNKLHLDRVRLYLMGTNLLTFSDFKLWDPELGSSNGQQYPLSRTVTIGLTVGI
  soluble on expression in E. coli: not soluble

## MGSDKIHHHHHHMNAWEVNFDGLVGLTHHYAGLSFGNEASTRHRFQVSNPRLAAKQGLLKMKALADAGFPQAVIPPHERPFIPVLRQLGFSGSDEQVLEKVARQAPHWLSSVSSASPMWVANAATIAPSADTLDGKVHLTVANLNNKFHRSLEAPVTESLLKAIFNDEEKFSVHSALPQVALLGDEGAANHNRLGGHYGEPGMQLFVYGREEGNDTRPSRYPARQTREASEAVARLNQVNPQQVIFAQQNPDVIDQGVFHNDVIAVSNRQVLFCHQQAFARQSQLLANLRARVNGFMAIEVPATQVSVSDTVSTYLFNSQLLSRDDGSMMLVLPQECREHAGVWGYLNELLAADNPISELKVFDLRESMANGGGPACLRLRVVLTEEERRAVNPAVMMNDTLFNALNDWVDRYYRDRLTAADLADPQLLREGREALDVLSQLLNLGSVYPFQREGGGNG
  soluble on expression in E. coli: not soluble

## MGSDKIHHHHHHMQEIVDQLAATIRAAAASNVPLRIRSGGTKDFYGQQDKGRDVAPEGILDPTAFAGIVDYEPTELVVTARTGTPLAQLETELNGRGQMLAFEPPHFGAGATLGGCIAAGLSGPRRASAGAVRDFVLGVRMLDGRGDDLSFGGRVMKNVAGYDIPRLMAGSLGTLGLLLEVSLKVLPLPAEERTLRLSMNEAVAIETMNRWAGKPLPVSATCFCEGELTVRLSGATSAVRAARAVLGGEEIVENSSFWKSIREQVHPFFRSGKQLWRLSIKSTTAPLSLPGKQLIEWGGAVRWLSVDAEMDNDAVETLVRKTAKEAGGHATLFRSRTPAAAVFHPLPPAMMNIHRQLKEKFDPMRIFNRGRLYPEL
  soluble on expression in E. coli: not soluble

## MSLKVTIKDIATICGVSAGTVDRALNNRTGISEKTREKILKTAKELNYRPDYTARSLVMGKTMTIGVVLFDLYNRSFAQLLNAIELKARELGYFIYITLSDKNPENELNCIEHLVNRKVDGIILFTVNKGEQFEANLSKWGIPIITIFNYVSEKWEYIGIQERQAMKEAVDYIASKRYKKFIYISPPLTYLGKNNIYTQEERLNGFYDGLKSNGITSKPLIIKNSEYIKELDNITFSQDGKVAIVCATDLYALEVMNYLKEKGFNIPEQVGVMGFDDIDMLKYITPRLTTVKYPIDEIGRRAIESMVNKINHGHFISTPLLNYQIIKGESIEGHHHHHH
  soluble on expression in E. coli: soluble

## MGSDKIHHHHHHMAKYPNTFHRASLMKQMTFADAEYAGKRKHTRRERFLIEMDQVVPWKGLIALIEPHYPKGEGGRPAYPLMAMLRIHLMQNWFGYSDPAMEEALYETTILRQFAGLSLDRIADETTILNFRRLLEKHELAGGILQVINGYLGDRGLMLRQGTVVDATIIHAPSSTKNKDGKRDPEMHQTKKGNQYFFGMKAHIGVDAESGLVHSLVGTAANVADVTQVDQLLHGEETYVSGDAGYTGVDKRAEHQDRQMIWSIAARPSRYKKHGEKSLIARVYRKIEFTKAQLRAKVEHPFRVIKRQFGYTKVRFRGLAKNTAQQATLFALSNLWMVRKRLLAMGEVRL
  soluble on expression in E. coli: not soluble

## MIDTNLLRVTVCDEGELEKSTTHFIGSRKIEPEQWITWASECKYLPESDAVALCATLIDRLSLEANVVPVSSPVTICGDIHGQFYDLLELFKTGGTVPNTKYVFMGDYVDRGHYSLETVTLLFCLLLKYPNQITLLRGNHESRRISNVYGFYDECQNKYGHGNVHKWFCKVFDVLPIGALIDESVLCVHGGLSPDIRTIDSLMLLDRAQEVPNKGPLCDIMWSDPDDDVEDWVISQRGAGFVFGAKVTEEFLMNNDLSLLCRSHQLVDEGFKYMFNEKLATVWSAPNYCYRCGNAAAVFEIDGNNRSTKYFNAVPDGSREKPDRVVAPYFL
  soluble on expression in E. coli: not soluble

## MGSDKIHHHHHHMKVLLIIPAYNEEENILRTIASIETFKQEVTHFQHELDYVVINDGSTDGTKQILEANQINAIHLVLNLGIGGAVQTGYKYALENEYDVAVQFDGDGQHDINSLPILLEPLAEGKCDFSIGSRFIPGNEASFQSTKMRRFGIRLLSFCIRMASGKTIYDVTSGYRAGNRKVIAFFAKRYPTNYPEPESIVHLIKKRFVIVERPVNMMERLGGVSSIRALASVKYMLEVGSAILIAAFMKEGD
  soluble on expression in E. coli: not soluble

## RYDKPGDKIDDGTELKLKGEKLKYVSRGGLKLEKGLHVFGVSVANQIGIDIGASTGGFTDVMLQDGAKLVYAVDVGTNQLVWKLRQDPRVRSMEQYNFRYAQPEDFNEGQPVFASIDVSFISLSLILPALHNVLSDQGQVIALIKPQFEAGREQIGKKGIVKDKQIHEKVIQKVMDFASGYGFTVKGLDFSPIQGGHGN
  soluble on expression in E. coli: not soluble

## MASETVSNHQEKALALLQADAEKILRLIKVQMDHLTMPQCPLYEEVLDTQMFGLSREVDFAVRLGLIAEEQGKVMLGELERELSALHEAFTNKQQ
  soluble on expression in E. coli: not soluble

## MFDRYESGERAILVHVFFSQDRDTDDLLEFESLVSSAGIESLQVVTGSRKAPHPKYFVGEGKAEEIAQAVKETGAFVVLFNHALTPAQERNLERLCECRVIDRTGLILDIFAQRARTHEGKLQVELAQLRHLATRLVRGWTHLERQKGGIGLRGPGETQLETDRRLLRNRISQILLRLERVEKQREQGRRSRVRADVPTVSLVGYTNAGKSTLFNKITSAGVYVADQLFATLDPTLRRIQVDDVGDTVLADTVGFIRQLPHDLVAAFKATLQETRQASLLLHVVDAADPRLDENIDAVNDVLAEIEADEIPALLVMNKIDMLDDFVPRIDRNEENLPIRVWLSAQTGDGIPLLFQALTERLSGEIAQYTLHLPPQAGRLRSRFYQLQAIEKEWIEEDGQIGLVIRMPIADWRRLCKKEQELMDYIALEHHHHHH
  soluble on expression in E. coli: not soluble
